T1: H-RAHAK(DNP)-OH
T1 chain: RAHAK

B1: A2C8: Trypsiligase II + H40F, A55A, R96E, K97D, L99F, N143E, E151Y, S190V, Q192A, S214G, G219Q, A221T (protein)
chain: IVGGYTCQENSVPYQVSLNSGHFFCGGSLINDQWVVSAAHCHESRIQVRLGEHNINVLEGNEQFVNAAKIIKHPNFDEDTFNNDIMLIKLSSPVKLNARVATVALPSSCAPAGTQCLISGWGETLSSGVNYPDLLQCLDAPLLPQADCEASYPGKITDNMVCVGFLEGGKKVCAGDSGGPVVCNGELQGIVGWGYQCTLPDNPGVYTKVCNYVDWIQDTIAAN
B2: Trypsiligase II (trypsin variant Y39H/Y59H/K60E/D189K) (protein)
chain: IVGGYTCQENSVPYQVSLNSGHHFCGGSLINDQWVVSAAHCHESRIQVRLGEHNINVLEGNEQFVNAAKIIKHPNFDRKTLNNDIMLIKLSSPVKLNARVATVALPSSCAPAGTQCLISGWGNTLSSGVNEPDLLQCLDAPLLPQADCEASYPGKITDNMVCVGFLEGGKKSCQGDSGGPVVCNGELQGIVSWGYGCALPDNPGVYTKVCNYVDWIQDTIAAN

Experiments:
[1] = system: Bz PGGXaaXaaXaaHAG-OH / H-XaaXaaXaaAK(DNP)-OH (recognition sequences YRRH, YMKH, RMKH); test: Time course of transamidation by A2C8_H39Y/H59Y/E60K/K189D and wild-type trypsin (FIG. 5); format: biochemical; details: comparison value for A2C8
Description: FIG. 5: Time course of the product formation for a transamidation reaction catalyzed by the variant A2C8_H39Y/H59Y/E60K/K189D as well as the wild-type Trypsin in correlation to various peptide substrates. Reaction conditions: 100 μM acyl donor (Bz PGGXaaXaaXaaHAG-OH), 200 μM acyl acceptor (H-XaaXaaXaaAK(DNP)-OH), 10 μM trypsin variant A2C8_H39Y/H59Y/E60K/K189D or 2.5 nM anionic rat trypsin II, 100 mM HEPES/NaOH pH 7.8, 0.1 mM ZnCl2, 100 mM NaCl, 10 mM CaCl2, T=30° C. UPLC analysis: Waters Acquity Ultra Performance LC, C18-column, gradient 5-60% acetonitrile, 5 min, detection at 360 nm.
The three substrates with the highest apparent turnover rate for the aminolysis reaction were then used for investigating the synthesis behavior of variant A2C8_H39Y/H59Y/E60K/K189D. In FIG. 5 the time course of product formation for a transamidation reaction catalyzed by variant A2C8_H39Y/H59Y/E60K/K189D with various peptide substrates is illustrated.

[2] = molecular target: T1, H-RAHAK(DNP)-OH

Molecule | product yield at comparable conditions [1] [%] | KM, acyl acceptor (µM); zinc ions (100 µM): no; transamidation with 250 µM Bz-PGGYRAHAG-OH as acyl donor [2] [µM] | KM, acyl acceptor (µM); zinc ions (100 µM): yes; transamidation with 250 µM Bz-PGGYRAHAG-OH as acyl donor [2] [µM] | fold increase of KM of the nucleophilic peptide without zinc ions against with zinc ions [2]
B1 | 59 | – | – | –
B2 | – | 1630 | 144 | increased by a factor of 11 to 1630 µM
